Laboratory results: the supplement of paper PMC7125110
± gives the standard error. Fewer inactive variants are shown than the library holds.

B1: glmS ribozyme (parent)
chain: AUAAAAGCGCCAGAACUACAGAAAUGUAGUUGACGAGGAGGAGGUUUAUCGAAUUUUCGGCGGAUGCCUCCAAA

Key:
Details in all cases: with glucosamine-6-phosphate
[1] = variants of: B1; assay: self-cleavage kobs at 160 uM GlcN6P; higher = faster cleavage; RNA array
Summary of the method: (§1)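 In situ transcription by E. coli RNA polymerase produced barcoded ribozyme variants on sequenced MiSeq chips, and a hybridised Cy3 probe tracked them at 37 °C. Glucosamine-6-phosphate was flowed in at 40 μM to 10 mM in HEPES/KCl/Mg(OAc)2 buffer. kcat and KM were taken from weighted Michaelis–Menten fits of kobs values from exponential decay fits.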

[2] = variants of: B1; assay: self-cleavage kobs at 640 uM GlcN6P; higher = faster cleavage; RNA array
Summary of the method: as §1

[3] = variants of: B1; assay: self-cleavage kobs at 2500 uM GlcN6P; higher = faster cleavage; RNA array
Summary of the method: as §1

[4] = variants of: B1; assay: self-cleavage kobs at 10000 uM GlcN6P; higher = faster cleavage; RNA array
Summary of the method: as §1

| Variant | self-cleavage kobs at 160 uM GlcN6P [1] [s⁻¹] | self-cleavage kobs at 640 uM GlcN6P [2] [s⁻¹] | self-cleavage kobs at 2500 uM GlcN6P [3] [s⁻¹] | self-cleavage kobs at 10000 uM GlcN6P [4] [s⁻¹] |
| --- | --- | --- | --- | --- |
| C10A A12G C16A U47C G63A C67G | < 1e-05 | < 1e-05 | – | – |
| A36C G41U | < 1e-05 | < 1e-05 | < 1e-05 | < 1e-05 |
| G37C G43C | < 1e-05 | < 1e-05 | < 1e-05 | < 1e-05 |
| G7A A14C A36C A64U | < 1e-05 | < 1e-05 | < 1e-05 | – |
| C16U A33G C34A A39G | < 1e-05 | < 1e-05 | – | – |
| G13A A42U | < 1e-05 | < 1e-05 | – | – |
| U31C G63A | < 1e-05 | – | – | < 1e-05 |
| A12C U56A C67A U69G | 8.14e-05 ± 2.1e-05 | 0.00447 ± 0.0018 | 0.000144 ± 4.7e-05 | – |
| A15C A53C C68U | < 1e-05 | – | – | – |
| C8G A12U G63U | < 1e-05 | < 1e-05 | < 1e-05 | – |
| G38C G41U G63C | < 1e-05 | – | < 1e-05 | – |
| G7A G9U C58A | < 1e-05 | < 1e-05 | – | – |
| C10A G41C U46G C68U | < 1e-05 | < 1e-05 | < 1e-05 | – |
| A6U A14G A15U U31G U55G | < 1e-05 | < 1e-05 | < 1e-05 | – |
| G44C C61G | < 1e-05 | < 1e-05 | – | < 1e-05 |
| G51U G63C C67G | < 1e-05 | < 1e-05 | < 1e-05 | < 1e-05 |
| A12G G29A G41C | < 1e-05 | < 1e-05 | < 1e-05 | < 1e-05 |
| A36G U49A | < 1e-05 | < 1e-05 | < 1e-05 | < 1e-05 |
| G43A U49C G66A C70G | < 1e-05 | < 1e-05 | < 1e-05 | – |
| A28G U30G C67U C71U | 4.89e-05 ± 2e-05 | 7.62e-05 ± 1.3e-05 | 0.000204 ± 5.3e-05 | – |
| G7U A12U U45G | < 1e-05 | < 1e-05 | < 1e-05 | – |
